Consider one molecule from publication PMC1713233 (2006).

This assay concerns the target T1, Trypsin Soybean Inhibitor (TSI) (Glycine max, UniProt P01070).
T1 chain: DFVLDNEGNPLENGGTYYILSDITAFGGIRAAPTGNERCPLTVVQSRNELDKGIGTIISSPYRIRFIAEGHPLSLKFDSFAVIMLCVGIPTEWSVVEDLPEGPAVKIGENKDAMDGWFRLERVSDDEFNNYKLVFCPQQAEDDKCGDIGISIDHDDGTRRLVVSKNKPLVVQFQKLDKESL
Kind of assay: enzyme inhibition assay (BAPNA substrate, Cheng-Prusoff).

B1: Implantation serine proteinase complex (ISP1-ISP2) (protein)
chain 1: KPVGIVGGQRTPPGKWPWQVSLRMYSYEVNSWVHICGGSIIHPQWILTAAHCIQSQDADPAVYRVQVGEVYLYKEQELLNISRIIIHPDYNDVSKRFDLALMQLTALLVTSTNVSPVSLPKDSSTFDSTDQCWLVGWGNLLQRVPLQPPYQLHEVKIPIQDNKSCKRAYRKKSSDEHKAVAIFDDMLCAGTSGRGPCFGDSGGPLVCWKSNKWIQVGVVSKGIDCSNNLPSIFSRVQSSLAWIHQHIQ
chain 2: not shown
For B1, the Ki was 2180 nM. In other words, the single-digit micromolar range.
